This data set deals with the molecule itself. The data set can be described thus: cryo-EM structure; IBV spike ectodomain 0.35 mg/ml in 2 mM Tris pH7.2 and 20 mM NaCl, plunge-frozen; pre-fusion state; three-fold noncrystallographic symmetry constraints in refinement.

B1: IBV spike ectodomain (avian infectious bronchitis coronavirus, strain M41) (domain or fragment)
chain: LYDSSSYVYYYQSAFRPPNGWHLHGGAYAVVNISSESNNAGSSPGCIVGTIHGGRVVNASSIAMTAPSSGMAWSSSQFCTAHCNFSDTTVFVTHCYKYDGCPITGMLQKNFLRVSAMKNGQLFYNLTVSVAKYPTFKSFQCVNNLTSVYLNGDLVYTSNETTDVTSAGVYFKAGGPITYKVMRKVKALAYFVNGTAQDVILCDGSPRGLLACQYNTGNFSDGFYPFINSSLVKQKFIVYRENSVNTTFTLHNFTFHNETGANPNPSGVQNILTYQTQTAQSGYYNFNFSFLSSFVYKESNFMYGSYHPSCNFRLETINNGLWFNSLSVSIAYGPLQGGCKQSVFSGRATCCYAYSYGGPSLCKGVYSGELDLNFECGLLVYVTKSGGSRIQTATEPPVITRHNYNNITLNTCVDYNIYGRTGQGFITNVTDSAVSYNYLADAGLAILDTSGSIDIFVVQGEYGLTYYKVNPCEDVNQQFVVSGGKLVGILTSRNETGSQLLENQFYIKITNGTRRFRRSITENVANCPYVSYGKFCIKPDGSIATIVPKQLEQFVAPLLNVTENVLIPNSFNLTVTDEYIQTRMDKVQINCLQYVCGNSLDCRDLFQQYGPVCDNILSVVNSIGQKEDMELLNFYSSTKPAGFNTPFLSNVSTGEFNISLLLTTPSSPRRRSFIEDLLFTSVESVGLPTDDAYKNCTAGPLGFLKDLACAREYNGLLVLPPIITAEMQTLYTSSLVASMAFGGITAAGAIPFATQLQARINHLGITQSLLLKNQEKIAASFNKAIGRMQEGFRSTSLALQQIQDVVNKQSAILTETMASLNKNFGAISSVIQEIYQQLDAIQANAQVDRLITGRLSSLSVLASAKQAEHIRVSQQRELATQKINECVKSQSIRYSFCGNGRHVLTIPQNAPNGIVFIHFSYTPDSFVNVTAIVGFCVKPANASQYAIVPANGRGIFIQVNGSYYITARDMYMPRAITAGDIVTLTSCQANYVSVNKTVITTFVDNDDFDFNDELSKWWNDTKHELPDFDKFNYTVPILDIDSEIDRIQGVIQGLNDSLIDLEKLS
modifications: glycans N-linked to 20 sites
notes: Spike protein of avian infectious bronchitis coronavirus (IBV) strain M41, GenBank ABI26423.1, ectodomain residues 20-1084; transmembrane anchor and intracellular domain replaced by GCN4 and His6 tags; The structural model holds residues 21-1022 except 702-710; The GCN4 tag is a trimerization tag; also called trimeric IBV spike ectodomain; source: Sf9 insect cells (Bac-to-Bac), harvested from …
Take B1: the “stoichiometry N” value turned out to be 3.

The term stoichiometry N denotes the number of molecules, sites or subunits per partner or assembly.

(Values after article PMC5933801, “Cryo-EM structure of infectious bronchitis coronavirus spike protein reveals structural and functional evolution of coronavirus spike proteins” (PLoS Pathogens, 2018).)
